According to the Human Domainome abundance scans (Beltran et al. 2025):
± gives the uncertainty stated by the source.

B1: Membrane-associated guanylate kinase, WW and PDZ domain-containing protein 1, residues 352 to 401; numbered along this chain, Q96QZ7 (parent)
chain: TEELDSELELPAGWEKIEDPVYGIYYVDHINRKTQYENPVLEAKRKKQLE

Variants of: B1
Assay: abundance fitness (aPCA) (normalised: wild type 0, dead -1); higher = more abundant; growth selection in yeast, the domain comes from the species named
Details: Homo sapiens

Row | Variant | abundance fitness
1 | E15W | -0.856 ± 0.056
2 | E15R | -0.38 ± 0.051
3 | E15M | -0.262 ± 0.079
4 | E15Y | -0.46 ± 0.23
5 | E15L | -0.55 ± 0.055
6 | E15C | -0.794 ± 0.14
7 | E15I | -0.733 ± 0.18
8 | E15T | -0.32 ± 0.085
9 | E15N | -0.449 ± 0.14
10 | E15F | -0.764 ± 0.13
11 | E15Q | -0.229 ± 0.086
12 | E15H | -0.393 ± 0.23
13 | E15A | -0.341 ± 0.057
14 | E15K | -0.328 ± 0.1
15 | L8S | -0.22 ± 0.07
16 | L8M | -0.023 ± 0.078
17 | L8H | -0.15 ± 0.11
18 | L8D | -0.505 ± 0.046
19 | L8I | -0.361 ± 0.11
20 | L8K | 0.095 ± 0.11
21 | L8N | -0.561 ± 0.23
22 | L8A | -0.042 ± 0.049
23 | L8V | -0.266 ± 0.064
24 | L8E | -0.2 ± 0.058

Row | Variant | abundance fitness
25 | L8W | -0.12 ± 0.07
26 | L8Q | -0.016 ± 0.046
27 | L8P | -0.248 ± 0.083
28 | L8Y | -0.103 ± 0.067
29 | L8F | -0.091 ± 0.058
30 | L8G | -0.15 ± 0.049
31 | L8T | -0.105 ± 0.097
32 | I17G | -0.602 ± 0.058
33 | I17L | -0.065 ± 0.069
34 | I17E | -0.408 ± 0.059
35 | I17P | -0.836 ± 0.14
36 | I17M | -0.041 ± 0.048
37 | I17N | -0.604 ± 0.14
38 | I17D | -0.637 ± 0.095
39 | I17C | -0.252 ± 0.077
40 | I17H | -0.241 ± 0.11
41 | I17A | -0.227 ± 0.062
42 | I17F | -0.258 ± 0.098
43 | I17Q | -0.809 ± 0.16
44 | K16E | -0.327 ± 0.095
45 | K16C | -0.245 ± 0.042
46 | K16L | -0.447 ± 0.079
47 | K16M | -0.206 ± 0.1
48 | K16F | -0.688 ± 0.27

Row | Variant | abundance fitness
49 | K16G | -0.561 ± 0.045
50 | K16A | -0.474 ± 0.087
51 | K16T | -0.49 ± 0.08
52 | K16Y | -0.902 ± 0.18
53 | K16P | -1.11 ± 0.43
54 | K16W | -0.802 ± 0.081
55 | K16D | -0.756 ± 0.17
56 | K16H | -1.03 ± 0.34
57 | K16I | -0.134 ± 0.13
58 | K16Q | -0.2 ± 0.1
59 | K16S | -0.445 ± 0.044
60 | K16V | -0.292 ± 0.052
61 | G13E | -0.425 ± 0.049
62 | G13C | -0.339 ± 0.089
63 | G13T | -0.898 ± 0.15
64 | G13K | -0.368 ± 0.05
65 | G13A | -0.458 ± 0.043
66 | G13D | -0.525 ± 0.12
67 | G13P | -0.41 ± 0.047
68 | G13Q | -0.282 ± 0.048
69 | G13I | -0.63 ± 0.084
70 | G13W | -0.428 ± 0.06
71 | G13V | -0.703 ± 0.066
72 | G13Y | -0.183 ± 0.066

Row | Variant | abundance fitness
73 | G13M | -0.448 ± 0.057
74 | G13H | -0.54 ± 0.13
75 | G13R | -0.59 ± 0.049
76 | E9C | -0.149 ± 0.072
77 | E9A | 0.105 ± 0.044
78 | E9T | -0.102 ± 0.051
79 | E9W | -0.497 ± 0.089
80 | E9R | -0.179 ± 0.044
81 | E9S | -0.103 ± 0.045
82 | E9I | -0.312 ± 0.13
83 | E9F | -0.441 ± 0.059
84 | E9V | -0.126 ± 0.061
85 | E9H | -0.095 ± 0.1
86 | E9L | -0.223 ± 0.058
87 | E9M | -0.079 ± 0.073
88 | E9Q | -0.137 ± 0.1
89 | E9D | -0.017 ± 0.1
90 | E9K | -0.078 ± 0.057
91 | E7V | 0.03 ± 0.044
92 | E7T | 0.053 ± 0.071
93 | E7W | -0.181 ± 0.094
94 | E7Y | -0.399 ± 0.12
95 | P11F | -0.515 ± 0.072
96 | P11I | -0.424 ± 0.12

Row | Variant | abundance fitness
97 | P11T | -0.194 ± 0.082
98 | P11M | -0.185 ± 0.089
99 | P11H | -0.554 ± 0.17
100 | P11N | -0.728 ± 0.14
101 | P11K | -0.153 ± 0.092
102 | P11G | -0.268 ± 0.043
103 | P11C | -0.249 ± 0.095
104 | P11Q | -0.38 ± 0.059
105 | P11A | -0.367 ± 0.045
106 | P11W | -0.519 ± 0.088
107 | P11S | -0.417 ± 0.039
108 | P11D | -0.382 ± 0.11
109 | P11L | -0.35 ± 0.058
110 | P11V | -0.671 ± 0.083
111 | P11E | -0.377 ± 0.088
112 | P11R | -0.494 ± 0.047
113 | L10E | -0.654 ± 0.081
114 | L10V | -0.221 ± 0.054
115 | L10D | -0.705 ± 0.16
116 | L10P | -0.385 ± 0.1
117 | L10Y | -0.571 ± 0.23
118 | L10I | -0.148 ± 0.15
119 | L10G | -0.574 ± 0.055
120 | L10K | -0.668 ± 0.2

Row | Variant | abundance fitness
121 | L10S | -0.382 ± 0.069
122 | L10C | -0.37 ± 0.1
123 | L10N | -0.574 ± 0.099
124 | L10H | -0.751 ± 0.26
125 | L10R | -0.626 ± 0.066
126 | L10F | -0.345 ± 0.095
127 | L10A | -0.322 ± 0.072
128 | L10Q | -0.296 ± 0.046
129 | L10W | -0.553 ± 0.068
130 | L10M | -0.286 ± 0.076
131 | L10T | -0.608 ± 0.096
132 | W14L | -0.897 ± 0.08
133 | W14E | -0.416 ± 0.057
134 | W14N | 0.02 ± 0.13
135 | W14G | -0.475 ± 0.048
136 | W14Q | -0.631 ± 0.11
137 | W14P | -0.598 ± 0.046
138 | W14K | -0.45 ± 0.12
139 | W14S | -0.46 ± 0.078
140 | W14V | -0.5 ± 0.044
141 | W14A | -0.686 ± 0.092
142 | W14C | -0.324 ± 0.092
143 | W14F | -0.458 ± 0.14
144 | W14R | -0.438 ± 0.038

Row | Variant | abundance fitness
145 | W14H | -0.592 ± 0.079
146 | W14D | -0.539 ± 0.12
147 | W14T | -0.254 ± 0.081
148 | W14I | 0.071 ± 0.13
149 | W14Y | -0.775 ± 0.24
150 | A12D | -0.09 ± 0.12
151 | A12Y | -0.38 ± 0.11
152 | A12H | 0.07 ± 0.1
153 | A12K | -0.113 ± 0.11
154 | A12M | -0.594 ± 0.15
155 | A12F | 0.107 ± 0.093
156 | A12L | -0.003 ± 0.056
157 | A12R | 0.016 ± 0.041
158 | A12G | -0.073 ± 0.057
159 | A12T | -0.145 ± 0.086
160 | A12W | -0.104 ± 0.048
161 | A12P | -0.098 ± 0.073
162 | A12S | -0.038 ± 0.054
163 | A12C | 0.12 ± 0.085
164 | A12E | 0.129 ± 0.052
165 | A12Q | -0.237 ± 0.096
166 | A12V | 0.019 ± 0.068
167 | A12I | 0.02 ± 0.072
